Measured values: patent US20060234285A1 (Human Genome Sciences, published 2006)

How the values were obtained:
[1] = molecular target: T1, Soluble human FLAG-FasL (synthesized at HGS) (human, UniProt P48023 130-281, limits assumed); assay: cell-based or functional assay
T1 sequence (looked up): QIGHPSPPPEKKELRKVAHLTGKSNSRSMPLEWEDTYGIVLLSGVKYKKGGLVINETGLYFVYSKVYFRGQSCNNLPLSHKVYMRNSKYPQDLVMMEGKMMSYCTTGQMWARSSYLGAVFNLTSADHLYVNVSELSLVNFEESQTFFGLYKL

[2] = molecular target: T2, Murine FasL on transfected murine L929 cells (murine, UniProt P41047 1-279); assay: cell-based or functional assay
T2 sequence (looked up): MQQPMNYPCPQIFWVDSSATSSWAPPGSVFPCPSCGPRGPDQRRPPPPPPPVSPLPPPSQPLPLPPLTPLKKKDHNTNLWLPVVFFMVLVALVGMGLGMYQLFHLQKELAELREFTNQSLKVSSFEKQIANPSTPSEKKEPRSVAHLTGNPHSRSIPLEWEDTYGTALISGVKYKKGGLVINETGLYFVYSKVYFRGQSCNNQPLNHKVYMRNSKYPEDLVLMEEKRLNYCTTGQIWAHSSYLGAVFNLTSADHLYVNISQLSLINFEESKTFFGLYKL

[3] = molecular target: T1, Soluble human FLAG-FasL (synthesized at …); assay: BIAcore, trimerized FLAG-FasL soluble
[4] = molecular target: T3, Human LIGHT, full length, on cells (stably transfected 293F cells; endogenous on activated human T cells) (human, UniProt O43557 1-240); assay: flow cytometry on 293 cells overexpressing LIGHT
T3 construct: whole, on cells; also called LIGHT-transfectants; cell membrane LIGHT
Method: This was tested on 293 cells overexpressing LIGHT according to flow cytometry.

[5] = molecular target: T4, TNF-gamma-beta, full length, on transfected cells (human, UniProt O95150 1-251); assay: flow cytometry on HEK293F cells expressing full length TNF-gamma-beta
T4 construct: whole, on cells; also called TL1β
T4 sequence (looked up): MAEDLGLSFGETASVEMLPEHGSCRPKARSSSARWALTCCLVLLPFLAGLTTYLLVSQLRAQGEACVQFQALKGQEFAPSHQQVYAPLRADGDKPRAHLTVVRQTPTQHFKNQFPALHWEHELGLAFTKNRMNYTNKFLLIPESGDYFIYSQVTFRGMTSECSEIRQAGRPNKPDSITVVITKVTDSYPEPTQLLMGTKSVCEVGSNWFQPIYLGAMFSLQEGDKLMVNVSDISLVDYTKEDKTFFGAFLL
Method: One million cells, in 0.1 ml of FACS buffer (PBS, 0.1% BSA, 0.1% NaN₃), were incubated with 0.1-1 microgram of protein or antibody at RT for 15 min. The cells were washed with 3 ml of FACS buffer, reacted with biotinylated primary antibody, and stained with PE-conjugated secondary antibody at RT for 15 min. Cells were then washed again, resuspended in 0.5 microgram/ml of propidium iodide, and live cells were gated and analyzed on a FACScan using the CellQuest software (BD Biosciences).

[6] = molecular target: T5, FLAG-tagged soluble form of TNF-gamma-beta (aa 72-251) (human, UniProt O95150 72-251); assay: coimmunoprecipitation with protein A-Sepharose, anti-Flag western blot
T5 construct: also called FLAG-TL1β; FLAG-TNF-gamma-beta
T5 sequence (looked up): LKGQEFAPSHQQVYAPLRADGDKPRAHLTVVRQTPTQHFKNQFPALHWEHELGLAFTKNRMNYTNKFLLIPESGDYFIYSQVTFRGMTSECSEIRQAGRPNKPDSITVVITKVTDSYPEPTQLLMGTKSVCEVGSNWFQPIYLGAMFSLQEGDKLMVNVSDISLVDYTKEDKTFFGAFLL
Source text: The beads were then precipitated and washed extensively with PBST buffer (PBS, 0.5% Triton X-100) before boiled in SDS-sample buffer. Proteins were resolved on 4-20% Tris-Glycine gels (NOVEX), transferred to nitrocellulose membranes, and blotted with anti-Flag M2 monoclonal antibody (1 microgram/ml, Sigma) and horseradish peroxidase (HRP)-conjugated goat anti-mouse IgG antibody (0.5 microgram/ml).

T3 sequence (O43557 whole entry): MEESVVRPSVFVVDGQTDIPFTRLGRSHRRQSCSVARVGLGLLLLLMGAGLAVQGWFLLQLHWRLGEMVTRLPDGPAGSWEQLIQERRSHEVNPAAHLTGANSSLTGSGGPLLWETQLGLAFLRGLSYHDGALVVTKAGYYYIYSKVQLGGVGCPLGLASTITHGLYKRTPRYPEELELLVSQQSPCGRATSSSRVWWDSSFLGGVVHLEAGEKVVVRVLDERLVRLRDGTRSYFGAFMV

B1: Human Fas(M1-G169)-Fc fusion protein (Fc fusion, UniProt P25445 26-169, looked up, not shown: a dimerising Fc or GST)
chain: QVTDINSKGLELRKTVTTVETQNLEGLHHDGQFCHKPCPPGERKARDCTVNGDEPDCVPCQEGKEYTDKAHFSSKCRRCRLCDEGHGLEVEINCTRTQNTKCRCKPNFFCNSTVCEHCDPCTKCEHGIIKECTLTSNTKCKEEG
notes: range 1-169; From CHO cells; a disulfide-linked dimer; also called Fas-Fc; FasFc
cross-linked FLAG-FasL mediated HT-29 cell death; shift of the cytotoxicity curve [1]: ~10 fold
IC50 of inhibition of killing of A20 target cells by murine FasL-transfected L929 cells [2]: ~0.1 µg/mL
Kd [3]: 7.4 nM
binding result [4]: no binding
binding result [5]: no binding
binding result [6]: no binding
